According to publication PMC9504416, “Functional Characterization of an Arabidopsis Profilin Protein as a Molecular Chaperone under Heat Shock Stress” (Molecules, 2022):

Molecular target: the molecule itself
Test: native gel or EMSA; 10% native PAGE with silver staining; concentration-dependent aliquots of recombinant protein, incubated at 25 °C for 30 min and centrifuged at 13,000 x g for 15 min

B1: Arabidopsis thaliana profilin-2 (AtPFN2), recombinant (natural protein, UniProt Q42418 1-131, looked up)
chain: MSWQSYVDDHLMCEVEGNHLTHAAIFGQDGSVWAQSSAFPQLKPAEIAGINKDFEEAGHLAPTGLFLGGEKYMVVQGEAGAVIRGKKGPGGVTIKKTTQALVFGIYDEPMTGGQCNLVVERLGDYLIESGL
notes: Profilin-2 (AtPFN2) of Arabidopsis thaliana, amplified by PCR from an A. thaliana cDNA library; single band of 14 kDa on SDS-PAGE; Homo-oligomer of various sizes; The vector pET28(a) probably adds the His tag; no removal of the tag is told; also called Arabidopsis PFN2; source: E. coli BL21 (DE3), pET28(a), purified (HisPur cobalt resin, imidazole elution; SEC)
Does B1 bind?
Result: binds
